In this test the target is T1, ubiquitin E3 ligase TRIM59 (human (endogenous in 293T), UniProt Q8IWR1 1-403).
T1 construct: TRIM59, ubiquitin E3 ligase primarily located in the ER, in 293T cells
T1 sequence (looked up): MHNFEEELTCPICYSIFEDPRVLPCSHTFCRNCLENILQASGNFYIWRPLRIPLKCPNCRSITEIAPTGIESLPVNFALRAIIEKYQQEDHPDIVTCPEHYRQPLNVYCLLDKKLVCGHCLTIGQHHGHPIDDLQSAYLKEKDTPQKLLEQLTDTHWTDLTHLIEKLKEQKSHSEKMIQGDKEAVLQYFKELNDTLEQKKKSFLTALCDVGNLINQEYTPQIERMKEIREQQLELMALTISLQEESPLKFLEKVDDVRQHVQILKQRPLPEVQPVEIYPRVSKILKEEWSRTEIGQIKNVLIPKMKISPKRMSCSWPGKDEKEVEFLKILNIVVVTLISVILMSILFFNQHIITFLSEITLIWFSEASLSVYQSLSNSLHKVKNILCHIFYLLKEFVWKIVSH
Kind of test: co-IP. As to conditions: partners not purified.

The text below walks through data of article PMC10790703 (mBio, 2023).

B1: SARS-CoV-2 ORF3a dG188 mutant, HA-tagged (natural protein)
chain: MDLFMRIFTIGTVTLKQGEIKDATPSDFVRATATIPIQASLPFGWLIVGVALLAVFQSASKIITLKKRWQLALSKGVHFVCNLLLLFVTVYSHLLLVAAGLEAPFLYLYALVYFLQSINFVRIIMRLWLCWKCRSKNPLLYDANYFLCWHTNCYDYCIPYNSVTSSIVITSGDGTTSPISEHDYQIGYTEKWESGVKDCVVLHSYFTSDYYQLYSTQLSTDTGVEHVTFFIYNKIVDEPEEHVQIHTIDGSSGVVNPVMEPIYDEPTTTTSVPL
notes: also called G188 deletion mutant; E-ORF3a (represented by the dG188 mutant); not shown: HA, C-terminal, kept
As for B1, the “fold of pulled-down ORF3a against WT ORF3a (densitometry)” value was around 1.5 fold.
